Assay results: PMC9279676, “ERK2 MAP kinase regulates SUFU binding by multisite phosphorylation of GLI1” (Life Science Alliance, 2022)
Several values for one entry are separate records, joined by “and”; a condition that tells them apart may be missing. Equal entries are not always repeated.

Key:
[1] = biological target: T1, full-length human SUFU protein, 35S-radiolabeled (human, UniProt Q9UMX1-1 1-484, [35S]-methionine label); assay: pull-down; purified GST-GLI1_(68-232) variants (mock treated or ERK2 phosphorylated), 0 or 1.25-80 nM, on glutathione-Sepharose beads; ∼1 pmol 35S-SUFU in 200 μl; 15 min at 30°C, then 1 h at room temperature; Binding Buffer (20 mM Tris-HCl pH 7.5, 125 mM KOAc, 0.5 mM EDTA, 5 mM DTT, 0.1% Tween20, 12.5% glycerol) + 1 mg/ml BSA; bound SUFU quantified by SDS-PAGE and Phosphorimager; Kd from binding isotherms; conditions: one partner purified
T1 construct: human SUFU, full length, residues 1-484, from plasmid pGEM4Z-SUFU; also called 35S-SUFU; radiolabeled SUFU; source: in vitro transcription and translation (SP6, Promega), partially purified by ammonium sulfate precipitation
T1 sequence (looked up): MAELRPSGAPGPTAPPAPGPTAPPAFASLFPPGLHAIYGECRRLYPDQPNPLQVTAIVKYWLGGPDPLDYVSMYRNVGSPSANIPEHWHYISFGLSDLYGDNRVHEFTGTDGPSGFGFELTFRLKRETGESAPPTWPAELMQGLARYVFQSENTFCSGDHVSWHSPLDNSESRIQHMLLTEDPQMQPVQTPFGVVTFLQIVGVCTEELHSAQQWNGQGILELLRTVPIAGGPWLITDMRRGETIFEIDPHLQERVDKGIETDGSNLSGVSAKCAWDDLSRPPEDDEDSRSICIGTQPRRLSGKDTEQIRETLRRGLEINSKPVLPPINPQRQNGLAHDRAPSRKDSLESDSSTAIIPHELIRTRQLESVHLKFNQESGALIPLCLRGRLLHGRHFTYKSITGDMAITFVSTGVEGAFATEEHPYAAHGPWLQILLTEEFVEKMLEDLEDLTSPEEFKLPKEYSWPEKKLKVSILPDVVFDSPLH

[2] = biological target: T2, full-length human SUFU protein, 35S-radiolabeled (human, UniProt Q9UMX1-1 1-484, [35S]-methionine label); assay: GLI1 phosphorylated by ERK2
T2 chain: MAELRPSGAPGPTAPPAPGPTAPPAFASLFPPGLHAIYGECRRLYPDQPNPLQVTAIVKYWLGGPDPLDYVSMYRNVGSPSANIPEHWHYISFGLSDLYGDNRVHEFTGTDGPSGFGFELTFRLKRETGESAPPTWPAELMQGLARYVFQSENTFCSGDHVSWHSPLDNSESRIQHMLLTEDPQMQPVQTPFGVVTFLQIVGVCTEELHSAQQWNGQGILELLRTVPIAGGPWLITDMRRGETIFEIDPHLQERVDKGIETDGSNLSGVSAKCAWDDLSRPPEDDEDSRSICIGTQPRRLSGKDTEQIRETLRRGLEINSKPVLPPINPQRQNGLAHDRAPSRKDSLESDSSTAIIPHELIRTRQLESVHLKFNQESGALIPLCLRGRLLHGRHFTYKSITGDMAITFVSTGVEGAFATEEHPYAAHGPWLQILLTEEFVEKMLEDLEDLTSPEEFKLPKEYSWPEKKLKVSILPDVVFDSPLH

[3] = biological target: T3, GST-SUFU (fusion of GST to full-length human SUFU) (human, UniProt Q9UMX1-1 1-484); assay: pull-down; purified GST-SUFU, 1.25-80 nM, captured on glutathione-Sepharose beads; ∼1 pmol 35S-GLI1 (1-232 or full length) in 200 μl; 15 min at 30°C, then 1 h at room temperature; Binding Buffer + 1 mg/ml BSA; bound GLI1 quantified by SDS-PAGE and Phosphorimager; Kd from binding isotherms; conditions: one partner purified
T3 construct: human SUFU, full length (residues 1-484), BamHI-SUFU-SalI cassette in pGEX-LB; pGEX-LB carries a Gly-Gly-Gly-Gly-Gly-Ser-Gly stretch between GST and the fused protein; also called full-length GST-SUFU; source: Escherichia coli, purified (glutathione-Sepharose); not shown: GST, N-terminal, kept
T3 sequence (looked up): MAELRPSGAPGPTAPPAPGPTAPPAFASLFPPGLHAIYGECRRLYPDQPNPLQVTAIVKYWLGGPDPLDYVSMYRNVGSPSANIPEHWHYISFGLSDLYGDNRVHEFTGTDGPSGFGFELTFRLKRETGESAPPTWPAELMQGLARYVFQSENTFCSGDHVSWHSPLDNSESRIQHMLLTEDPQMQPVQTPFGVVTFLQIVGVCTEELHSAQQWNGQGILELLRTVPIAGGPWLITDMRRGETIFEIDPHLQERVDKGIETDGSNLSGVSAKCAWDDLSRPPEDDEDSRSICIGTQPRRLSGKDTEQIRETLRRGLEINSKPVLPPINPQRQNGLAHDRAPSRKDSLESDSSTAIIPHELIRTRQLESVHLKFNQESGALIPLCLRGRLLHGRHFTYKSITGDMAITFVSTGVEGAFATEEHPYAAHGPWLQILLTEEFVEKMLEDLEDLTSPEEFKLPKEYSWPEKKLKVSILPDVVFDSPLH

B1: GST-GLI1_(68-232), wild type, phosphorylated by ERK2 (domain or fragment, human, UniProt P08151-1 68-232, looked up)
chain: FSSPRSAVKLTKKRALSISPLSDASLDLQTVIRTSPSSLVAFINSRCTSPGGSYGHLSIGTMSPSLGFPAQMNHQKGPSPSFGVQPCGPHDSARGGMIPHPQSRGPFPTCQLKSELDMLVGKCREEPLEGDMSSPNSTGIQDPLLGMLDGREDLEREEKREPESV
modifications: phosphorylated by ERK2 to ∼3 mol phosphate per mole; most efficient sites Ser116 and Ser130, followed by Ser102 and Ser201
notes: vector pGEX-LB; also called ERK2-phosphorylated GLI1; WT + ERK2; source: bacteria, purified (glutathione-Sepharose); then phosphorylated with purified active ERK2 (2 h, 30°C)
Kd [1]: 93 nM | Kd [2]: 118 nM

B2: GST-GLI1_(68-232), wild type, unphosphorylated (mock treated) (domain or fragment, human, UniProt P08151-1 68-232, looked up)
chain: FSSPRSAVKLTKKRALSISPLSDASLDLQTVIRTSPSSLVAFINSRCTSPGGSYGHLSIGTMSPSLGFPAQMNHQKGPSPSFGVQPCGPHDSARGGMIPHPQSRGPFPTCQLKSELDMLVGKCREEPLEGDMSSPNSTGIQDPLLGMLDGREDLEREEKREPESV
notes: vector pGEX-LB (Gly-Gly-Gly-Gly-Gly-Ser-Gly stretch between GST and the fused part); the plasmid is from Whisenant et al, 2010; also called wild-type GLI1; WT; source: bacteria, purified (glutathione-Sepharose); untreated or mock treated (no ERK2)
Kd [1]: ~4 nM and 4 nM and 3 nM

B3: GST-GLI1^SSS, phosphorylated by ERK2 (domain or fragment, human, UniProt P08151-1 68-232, looked up)
chain: FSAPRSAVKLTKKRALSIAPLSDASLDLQTVIRTSPSSLVAFINSRCTSPGGSYGHLSIGTMSPSLGFPAQMNHQKGPAPSFGVQPCGPHDSARGGMIPHPQSRGPFPTCQLKSELDMLVGKCREEPLEGDMSAPNSTGIQDPLLGMLDGREDLEREEKREPESV
modifications: phosphorylated by ERK2; intact SP sites S102, S116, S130
notes: only S102, S116 and S130 left intact; also called ERK-phosphorylated GLI1^SSS; phosphorylated GLI1^SSS mutant; source: bacteria, purified (glutathione-Sepharose); then phosphorylated with purified active ERK2
Kd [1]: 127 nM

B4: GST-GLI1^S102 (GST-GLI1_(68-232), only S102 intact), mock treated (domain or fragment, human, UniProt P08151-1 68-232, looked up)
chain: FSAPRSAVKLTKKRALSIAPLSDASLDLQTVIRTSPSSLVAFINSRCTAPGGSYGHLSIGTMAPSLGFPAQMNHQKGPAPSFGVQPCGPHDSARGGMIPHPQSRGPFPTCQLKSELDMLVGKCREEPLEGDMSAPNSTGIQDPLLGMLDGREDLEREEKREPESV
notes: only the SP site S102 intact; also called S102 one site only; source: bacteria, purified (glutathione-Sepharose); mock treated (no ERK2)
Kd [1]: ~3 nM

B5: GST-GLI1^S102, phosphorylated by ERK2 (domain or fragment, human, UniProt P08151-1 68-232, looked up)
chain: FSAPRSAVKLTKKRALSIAPLSDASLDLQTVIRTSPSSLVAFINSRCTAPGGSYGHLSIGTMAPSLGFPAQMNHQKGPAPSFGVQPCGPHDSARGGMIPHPQSRGPFPTCQLKSELDMLVGKCREEPLEGDMSAPNSTGIQDPLLGMLDGREDLEREEKREPESV
modifications: phosphorylated by ERK2; only intact SP site S102
notes: only the SP site S102 intact; also called ERK2-treated GLI1^S102; source: bacteria, purified (glutathione-Sepharose); then phosphorylated with purified active ERK2
Kd [1]: 14 ± 4 nM

B6: GST-GLI1^S116 (GST-GLI1_(68-232), only S116 intact), mock treated (domain or fragment, human, UniProt P08151-1 68-232, looked up)
chain: FSAPRSAVKLTKKRALSIAPLSDASLDLQTVIRTAPSSLVAFINSRCTSPGGSYGHLSIGTMAPSLGFPAQMNHQKGPAPSFGVQPCGPHDSARGGMIPHPQSRGPFPTCQLKSELDMLVGKCREEPLEGDMSAPNSTGIQDPLLGMLDGREDLEREEKREPESV
notes: only the SP site S116 intact; also called S116 one site only; source: bacteria, purified (glutathione-Sepharose); mock treated (no ERK2)
Kd [1]: 14 nM

B7: GST-GLI1^S102,S116, phosphorylated by ERK2 (domain or fragment, human, UniProt P08151-1 68-232, looked up)
chain: FSAPRSAVKLTKKRALSIAPLSDASLDLQTVIRTSPSSLVAFINSRCTSPGGSYGHLSIGTMAPSLGFPAQMNHQKGPAPSFGVQPCGPHDSARGGMIPHPQSRGPFPTCQLKSELDMLVGKCREEPLEGDMSAPNSTGIQDPLLGMLDGREDLEREEKREPESV
modifications: phosphorylated by ERK2; intact SP sites S102, S116
notes: only the SP sites S102 and S116 intact; also called ERK2-treated GLI1^S102,S116; source: bacteria, purified (glutathione-Sepharose); then phosphorylated with purified active ERK2
Kd [1]: 43 ± 8 nM

B8: GST-GLI1^S102,S130, phosphorylated by ERK2 (domain or fragment, human, UniProt P08151-1 68-232, looked up)
chain: FSAPRSAVKLTKKRALSIAPLSDASLDLQTVIRTSPSSLVAFINSRCTAPGGSYGHLSIGTMSPSLGFPAQMNHQKGPAPSFGVQPCGPHDSARGGMIPHPQSRGPFPTCQLKSELDMLVGKCREEPLEGDMSAPNSTGIQDPLLGMLDGREDLEREEKREPESV
modifications: phosphorylated by ERK2; intact SP sites S102, S130
notes: only the SP sites S102 and S130 intact; also called ERK2-treated GLI1^S102,S130; source: bacteria, purified (glutathione-Sepharose); then phosphorylated with purified active ERK2
Kd [1]: 25 ± 3 nM

B9: GLI1_(1-232), wild type, 35S-radiolabeled (domain or fragment, human, UniProt P08151-1 1-232, looked up)
chain: MFNSMTPPPISSYGEPCCLRPLPSQGAPSVGTEGLSGPPFCHQANLMSGPHSYGPARETNSCTEGPLFSSPRSAVKLTKKRALSISPLSDASLDLQTVIRTSPSSLVAFINSRCTSPGGSYGHLSIGTMSPSLGFPAQMNHQKGPSPSFGVQPCGPHDSARGGMIPHPQSRGPFPTCQLKSELDMLVGKCREEPLEGDMSSPNSTGIQDPLLGMLDGREDLEREEKREPESV
modifications: [35S]-methionine label
notes: source: in vitro transcription/translation (T7), partially purified by ammonium sulfate precipitation
Kd [3]: 8 nM and 14 nM

B10: GLI1_(1-232) L124P (tumor-derived), 35S-radiolabeled (domain or fragment, human, UniProt P08151-1 1-232, looked up)
chain: MFNSMTPPPISSYGEPCCLRPLPSQGAPSVGTEGLSGPPFCHQANLMSGPHSYGPARETNSCTEGPLFSSPRSAVKLTKKRALSISPLSDASLDLQTVIRTSPSSLVAFINSRCTSPGGSYGHPSIGTMSPSLGFPAQMNHQKGPSPSFGVQPCGPHDSARGGMIPHPQSRGPFPTCQLKSELDMLVGKCREEPLEGDMSSPNSTGIQDPLLGMLDGREDLEREEKREPESV
modifications: [35S]-methionine label
notes: source: in vitro transcription/translation, partially purified by ammonium sulfate precipitation
Kd [3]: 3800 nM
